Experiments:
Experiment in all cases: IEDB peptide-MHC binding, purified MHC/competitive/radioactivity; filed as Kd, often an IC50 or EC50 that approximates it; ≥ and ≤ were set here for values at or beyond the usual limits of such assays
HLA-A*31:01 = molecular target: HLA-A*31:01
HLA-A*03:01 = molecular target: HLA-A*03:01
HLA-A*11:01 = molecular target: HLA-A*11:01
HLA-A*33:01 = molecular target: HLA-A*33:01
HLA-A*68:01 = molecular target: HLA-A*68:01
[1] = source organism: Vaccinia virus WR
[2] = source organism: Dengue virus 2 Jamaica/1409/1983
[3] = source organism: SARS coronavirus Tor2
[4] = source organism: Dengue virus 1 Brazil/97-11/1997
[5] = source organism: Dengue virus 4 Philippines/H241/1956
[6] = source organism: Vaccinia virus Copenhagen
[7] = source organism: Dengue virus 4 Dominica/814669/1981
[8] = source organism: Mammarenavirus whitewaterense
[9] = source organism: Lymphocytic choriomeningitis virus (strain Armstrong)
[10] = source organism: Dengue virus 3 Martinique/1243/1999
[11] = source organism: Mammarenavirus guanaritoense

Sequence | Kd (HLA-A*31:01; [1]) [nM] | Kd (HLA-A*03:01; [1]) [nM] | Kd (HLA-A*11:01; [1]) [nM] | Kd (HLA-A*33:01; [1]) [nM] | Kd (HLA-A*68:01; [1]) [nM] | further results
KIMSIGFEAR | 6.06 | 175 | 36.2 | 562 | 88.1 | 
KINSVKYYGR | 30.2 | 1870 | 135 | 2420 | 5340 | 
KIPIYSHTER | 25.8 | 1060 | 1140 | 1190 | 1530 | 
KLGEFGKAK |  |  |  |  |  | Kd (HLA-A*03:01; [2]): 22.1 nM
KLMEEYLRR | 5.59 | 11.4 | 9.83 | ≥ 22000 | 1910 | 
KSFNHVLKRK |  |  |  |  |  | Kd (HLA-A*31:01; [3]): 67.9 nM; Kd (HLA-A*03:01; [3]): 1.01 nM; Kd (HLA-A*11:01; [3]): 6.18 nM; Kd (HLA-A*33:01; [3]): ≥ 70000 nM; Kd (HLA-A*68:01; [3]): 1570 nM
KSLNRQTVSR | 7.78 | 87.2 | 187 | 1320 | 7000 | 
KSTQSVLCVK | 90 | 60.7 | 0.497 | 11400 | 26.5 | 
KVIDLGCGR |  |  |  |  |  | Kd (HLA-A*31:01; [4]): 9210 nM
LACTDPSER | 572 | ≥ 55100 | 19900 | 2310 | 173 | 
LAELLEMKY | ≥ 77900 | 14400 | ≥ 77900 | ≥ 77700 | ≥ 77700 | 
LLAISAVYFK | 379 | 3.35 | 11.9 | 1030 | 2.52 | 
LLNKEMYLK |  |  |  |  |  | Kd (HLA-A*31:01; [3]): 155 nM; Kd (HLA-A*03:01; [3]): 10.7 nM; Kd (HLA-A*11:01; [3]): 16.9 nM; Kd (HLA-A*33:01; [3]): 6500 nM; Kd (HLA-A*68:01; [3]): 1100 nM
LLSIVVDINK | 1090 | 485 | 35.9 | 10500 | 110 | 
LSDIISAEK | 1800 | 946 | 34.1 | 12600 | 185 | 
MILMKMKKK |  |  |  |  |  | Kd (HLA-A*03:01; [5]): 86.3 nM
MLIFNVKSK | ≥ 21100 | 228 | 491 | ≥ 45800 | 0.841 | 
MLIYSMWGK |  |  |  |  |  | Kd (HLA-A*31:01; [6]): 459 nM; Kd (HLA-A*03:01; [6]): 10.6 nM; Kd (HLA-A*11:01; [6]): 2.63 nM; Kd (HLA-A*33:01; [6]): 2040 nM
MWTLMYFHR |  |  |  |  |  | Kd (HLA-A*31:01; [2]): 7.83 nM; Kd (HLA-A*33:01; [2]): 1.51 nM
NSALTLHWFR |  |  |  |  |  | Kd (HLA-A*31:01; [7]): 3.53 nM; Kd (HLA-A*33:01; [7]): 4.07 nM; Kd (HLA-A*68:01; [7]): 1.75 nM
NSEYIESKAK | ≥ 34200 | 5890 | 1960 | ≥ 30600 | 4190 | 
NTFPNITLK |  |  |  |  |  | Kd (HLA-A*31:01; [6]): 595 nM; Kd (HLA-A*03:01; [6]): 53.1 nM; Kd (HLA-A*11:01; [6]): 9.39 nM; Kd (HLA-A*33:01; [6]): 164 nM; Kd (HLA-A*68:01; [6]): 0.779 nM

Sequence | Kd (HLA-A*31:01; [1]) [nM] | Kd (HLA-A*03:01; [1]) [nM] | Kd (HLA-A*11:01; [1]) [nM] | Kd (HLA-A*33:01; [1]) [nM] | Kd (HLA-A*68:01; [1]) [nM] | further results
PISASDMQK | 282 | 3230 | 163 | 7290 | 8850 | 
PLHILASNK | 12500 | 161 | 6420 | ≥ 77700 | 11400 | 
PMFAVGLLFR |  |  |  |  |  | Kd (HLA-A*33:01; [4]): 91.1 nM
QIFNEDTSYY | ≥ 35700 | 1420 | 725 | ≥ 70000 | 11.7 | 
QKCGELLEFH |  |  |  |  |  | Kd (HLA-A*31:01; [8]): 11300 nM; Kd (HLA-A*03:01; [8]): ≥ 70000 nM; Kd (HLA-A*11:01; [8]): ≥ 69700 nM; Kd (HLA-A*33:01; [8]): ≥ 70000 nM; Kd (HLA-A*68:01; [8]): ≥ 70100 nM
QMREIITGNK | 1950 | 15.8 | 1710 | ≥ 47500 | 12400 | 
QQQGQTVTKK |  |  |  |  |  | Kd (HLA-A*31:01; [3]): 13700 nM; Kd (HLA-A*03:01; [3]): 6440 nM; Kd (HLA-A*11:01; [3]): 407 nM; Kd (HLA-A*33:01; [3]): ≥ 70000 nM; Kd (HLA-A*68:01; [3]): 8240 nM
QVIAVEPGK |  |  |  |  |  | Kd (HLA-A*11:01; [4]): 781 nM
RCHDHYLCR |  |  |  |  |  | Kd (HLA-A*31:01; [9]): 907 nM; Kd (HLA-A*03:01; [9]): ≥ 22300 nM; Kd (HLA-A*11:01; [9]): ≥ 25700 nM; Kd (HLA-A*33:01; [9]): ≥ 35600 nM; Kd (HLA-A*68:01; [9]): ≥ 10000 nM
RLNNPVILSK | 1550 | 11.7 | 11.9 | ≥ 54900 | 4490 | 
RMLFTSTNDK | 112 | 3.92 | 1.54 | 15100 | 35.6 | 
RQDLLVTFK |  |  |  |  |  | Kd (HLA-A*11:01; [4]): 197 nM
RSCSYKIGHH |  |  |  |  |  | Kd (HLA-A*31:01; [8]): 294 nM; Kd (HLA-A*03:01; [8]): 3900 nM; Kd (HLA-A*11:01; [8]): 17200 nM; Kd (HLA-A*33:01; [8]): ≥ 70000 nM; Kd (HLA-A*68:01; [8]): ≥ 50900 nM
RSDGYFLKIK | 5500 | 10400 | 1560 | ≥ 70000 | ≥ 70200 | 
SILASSLLR |  |  |  |  |  | Kd (HLA-A*03:01; [10]): 722 nM; Kd (HLA-A*11:01; [10]): 125 nM
TTIFAGHLK |  |  |  |  |  | Kd (HLA-A*11:01; [4]): 30.7 nM; Kd (HLA-A*68:01; [4]): 25.4 nM
TTSLFLHLV |  |  |  |  |  | Kd (HLA-A*03:01; [11]): 15300 nM; Kd (HLA-A*33:01; [11]): 2260 nM
TYLALIATFK |  |  |  |  |  | Kd (HLA-A*33:01; [10]): 69.9 nM
TYSDPLALR |  |  |  |  |  | Kd (HLA-A*31:01; [4]): ≥ 77900 nM; Kd (HLA-A*33:01; [4]): 9.22 nM
VVKDDPDHYK | ≥ 40300 |  |  | ≥ 70000 | ≥ 70200 | 
WSLMYFHRR |  |  |  |  |  | Kd (HLA-A*31:01; [10]): 0.548 nM; Kd (HLA-A*33:01; [10]): 0.235 nM
YVLGIFLRK |  |  |  |  |  | Kd (HLA-A*03:01; [5]): 1.22 nM; Kd (HLA-A*11:01; [5]): 9.88 nM

— the Immune Epitope Database (IEDB)
